Test results taken from patent US20210246166A1 (Bayer, published 2021).
Bridge positions count the residues as written; N and C are the ends. Ends that are not written are not given here.

T1: Recombinant rat MASP1 enzyme (fragment corresponding to amino acids 302-704, C-terminal His Tag) (rat, UniProt Q8CHN8 302-704)
T1 sequence: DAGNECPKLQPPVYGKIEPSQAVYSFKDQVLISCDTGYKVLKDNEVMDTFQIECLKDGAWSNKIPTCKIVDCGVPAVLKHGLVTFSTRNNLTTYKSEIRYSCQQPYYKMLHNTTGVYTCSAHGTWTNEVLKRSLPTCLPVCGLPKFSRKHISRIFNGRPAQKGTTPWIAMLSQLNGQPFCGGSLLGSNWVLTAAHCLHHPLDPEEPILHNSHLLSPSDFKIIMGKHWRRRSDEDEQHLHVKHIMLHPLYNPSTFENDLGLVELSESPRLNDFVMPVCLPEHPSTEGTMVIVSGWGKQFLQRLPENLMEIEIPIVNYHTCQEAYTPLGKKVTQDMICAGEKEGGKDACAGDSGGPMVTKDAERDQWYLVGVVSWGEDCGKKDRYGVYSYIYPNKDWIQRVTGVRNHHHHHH

T2: Recombinant human MASP1 active protease (amino acids 297-699, C-terminal His Tag) (human, UniProt P48740 297-699)
T2 sequence: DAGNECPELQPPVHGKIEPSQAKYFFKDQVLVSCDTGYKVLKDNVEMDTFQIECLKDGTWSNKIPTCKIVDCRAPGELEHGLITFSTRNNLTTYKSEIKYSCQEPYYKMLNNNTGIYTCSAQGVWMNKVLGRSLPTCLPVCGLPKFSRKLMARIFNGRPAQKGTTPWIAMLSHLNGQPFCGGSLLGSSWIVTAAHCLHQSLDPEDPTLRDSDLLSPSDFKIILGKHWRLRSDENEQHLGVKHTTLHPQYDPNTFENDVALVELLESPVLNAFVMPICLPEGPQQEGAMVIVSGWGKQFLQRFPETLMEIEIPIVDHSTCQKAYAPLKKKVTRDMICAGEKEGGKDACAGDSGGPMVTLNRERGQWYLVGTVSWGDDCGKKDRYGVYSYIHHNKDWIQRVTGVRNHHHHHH

B1: AIC+SRSLPPIC+IPD-OH (peptide)
peptide: AICSRSLPPICIPD-OH
modifications: disulfide 3-11; N-terminus assumed
SMILES: CC[C@H](C)[C@H](NC(=O)[C@H](C)N)C(=O)N[C@H]1CSSC[C@@H](C(=O)N[C@H](C(=O)N2CCC[C@H]2C(=O)N[C@@H](CC(=O)O)C(=O)O)[C@@H](C)CC)NC(=O)[C@H]([C@@H](C)CC)NC(=O)[C@@H]2CCCN2C(=O)[C@@H]2CCCN2C(=O)[C@H](CC(C)C)NC(=O)[C@H](CO)NC(=O)[C@H](CCCNC(=N)N)NC(=O)[C@H](CO)NC1=O
B2: AIC+SRSLPPIC+IPD-NH2 (peptide)
peptide: AICSRSLPPICIPD-NH2
modifications: disulfide 3-11; N-terminus assumed
SMILES: CC[C@H](C)[C@H](NC(=O)[C@H](C)N)C(=O)N[C@H]1CSSC[C@@H](C(=O)N[C@H](C(=O)N2CCC[C@H]2C(=O)N[C@@H](CC(=O)O)C(N)=O)[C@@H](C)CC)NC(=O)[C@H]([C@@H](C)CC)NC(=O)[C@@H]2CCCN2C(=O)[C@@H]2CCCN2C(=O)[C@H](CC(C)C)NC(=O)[C@H](CO)NC(=O)[C@H](CCCNC(=N)N)NC(=O)[C@H](CO)NC1=O
B3: GIC+SRSLPPIC+IPD-OH (peptide)
peptide: GICSRSLPPICIPD-OH
modifications: disulfide 3-11; N-terminus assumed
SMILES: CC[C@H](C)[C@H](NC(=O)CN)C(=O)N[C@H]1CSSC[C@@H](C(=O)N[C@H](C(=O)N2CCC[C@H]2C(=O)N[C@@H](CC(=O)O)C(=O)O)[C@@H](C)CC)NC(=O)[C@H]([C@@H](C)CC)NC(=O)[C@@H]2CCCN2C(=O)[C@@H]2CCCN2C(=O)[C@H](CC(C)C)NC(=O)[C@H](CO)NC(=O)[C@H](CCCNC(=N)N)NC(=O)[C@H](CO)NC1=O

Legend:
Assay in all cases: cell-based or functional assay
[1] = target: Recombinant rat MASP2 enzyme (fragment corresponding to amino acids 296-685, C-terminal His Tag) (rat, UniProt Q9JJS8 296-685)
Sequence of Recombinant rat MASP2 enzyme (fragment corresponding to amino acids 296-685, C-terminal His Tag) (Q9JJS8 other isoform, or with tags, fused parts or gaps limits assumed): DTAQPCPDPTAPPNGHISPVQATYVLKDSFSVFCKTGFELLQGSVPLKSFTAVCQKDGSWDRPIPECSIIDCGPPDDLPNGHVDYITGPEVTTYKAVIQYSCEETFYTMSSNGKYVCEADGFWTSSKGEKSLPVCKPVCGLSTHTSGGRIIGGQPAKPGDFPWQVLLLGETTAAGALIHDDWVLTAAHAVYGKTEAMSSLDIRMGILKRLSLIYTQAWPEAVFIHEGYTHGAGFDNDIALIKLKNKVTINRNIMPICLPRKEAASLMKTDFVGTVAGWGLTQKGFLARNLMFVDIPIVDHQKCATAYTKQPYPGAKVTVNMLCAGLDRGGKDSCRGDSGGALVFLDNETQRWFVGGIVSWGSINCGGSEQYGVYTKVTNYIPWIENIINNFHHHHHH

[2] = target: T1, Recombinant rat MASP1 enzyme (fragment …)
[3] = target: T2, Recombinant human MASP1 active protease …
[4] = target: Recombinant human MASP2 active protease (amino acids 297-686, C-terminal His Tag) (human, UniProt O00187 297-686)
Sequence of Recombinant human MASP2 active protease (amino acids 297-686, C-terminal His Tag) (O00187 other isoform, or with tags, fused parts or gaps limits assumed): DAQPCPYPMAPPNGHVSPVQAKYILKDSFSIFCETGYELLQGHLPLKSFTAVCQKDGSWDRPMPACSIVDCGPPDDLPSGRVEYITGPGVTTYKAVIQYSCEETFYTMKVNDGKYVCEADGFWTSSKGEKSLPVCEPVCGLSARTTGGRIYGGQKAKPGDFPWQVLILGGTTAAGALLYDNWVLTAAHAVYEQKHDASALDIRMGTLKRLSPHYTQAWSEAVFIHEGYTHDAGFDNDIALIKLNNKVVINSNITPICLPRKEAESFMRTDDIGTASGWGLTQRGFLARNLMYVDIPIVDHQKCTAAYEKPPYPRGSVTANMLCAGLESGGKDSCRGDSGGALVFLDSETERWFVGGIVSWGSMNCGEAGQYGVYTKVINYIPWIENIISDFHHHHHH

Binder	rat MASP2 IC50 [1] [nM]	rat MASP1 IC50 [2] [nM]	human MASP1 IC50 (FRET substrate cleavage, enzyme activity) [3] [nM]	human MASP2 IC50 (FRET substrate cleavage, enzyme activity) [4] [nM]
B1	68.4	50.2		
GICSRSLPPICIPD-OH (disulfide 3-11; also: TFA salt) [SFMI-1, GIC+SRSLPPIC+IPD-OH (Reference No 1)]			15.6	1090
AICSRSLPPICIPD-NH2 (disulfide 3-11; also: HCl salt) [AIC+SRSLPPIC+IPD-NH2 (HCl Salt)]		210		
GICSRSLPPICIPD-OH (disulfide 3-11; also: HCl salt) [SFMI-1 HCl, GIC+SRSLPPIC+IPD-OH (HCl Salt) (Reference No 2)]			18	610
AICSRSLPPICIPD-NH2 (disulfide 3-11; also: TFA salt) [Ala-1 SFMI-1 amide, AIC+SRSLPPIC+IPD-NH2 (Reference No B)]			8	390
AICSRSLPPICIPD-OH (disulfide 3-11; also: TFA salt) [Ala-1 SFMI-1, AIC+SRSLPPIC+IPD-OH (Reference No A)]			7.45	914
GICSRSLPPICIPD-NH2 (disulfide 3-11; also: TFA salt) [SFMI-1 amide, GIC+SRSLPPIC+IPD-NH2 (Reference No 3)]			18	610
B2	54.2	83.4		
AICSRSLPPICIPD-NH2 (disulfide 3-11; also: HCl salt) [Ala-1 SFMI-1 HCl amide, AIC+SRSLPPIC+IPD-NH2 (HCl Salt) (Reference No C)]			3.6	3000
B3	68	68.6		
